# Experimental data as given in article PMC12399569 (2025).
# Target: purified hTMPRSS2 protein (human, UniProt O15393 1-492)
# Experiment: SPR
# purified hTMPRSS2 protein, sequence (O15393 whole entry): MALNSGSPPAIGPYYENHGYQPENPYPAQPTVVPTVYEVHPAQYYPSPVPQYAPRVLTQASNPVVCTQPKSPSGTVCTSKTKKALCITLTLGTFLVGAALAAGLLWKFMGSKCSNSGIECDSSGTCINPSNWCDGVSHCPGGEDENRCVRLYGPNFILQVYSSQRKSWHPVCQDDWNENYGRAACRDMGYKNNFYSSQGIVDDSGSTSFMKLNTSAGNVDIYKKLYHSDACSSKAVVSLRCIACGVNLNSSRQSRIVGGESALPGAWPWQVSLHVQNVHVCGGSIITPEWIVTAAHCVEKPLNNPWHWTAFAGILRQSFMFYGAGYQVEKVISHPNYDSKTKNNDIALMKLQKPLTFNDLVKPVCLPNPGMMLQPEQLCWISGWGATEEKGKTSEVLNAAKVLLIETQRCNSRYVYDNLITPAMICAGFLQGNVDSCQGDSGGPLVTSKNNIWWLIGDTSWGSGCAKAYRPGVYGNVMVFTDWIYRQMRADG
binder,measurement,value
"Spike protein (recombinant, analyte of the ternary SPR experiment) (natural protein) CQTTNGLNTSYSVCNGCVGYSENVFAVESGGYIPSDFAFNNWFLLTNTSSVVDGVVRSFQPLLLNCLWSVSGLRFTTGFVYFNGTGRGDCKGFSSDVLSDVIRYNLNFEENLRRGTILFKTSYGVVVFYCTNNTLVSGDAHIPFGTVLGNFYCFVNTTIGNETTSAFVGALPKTVREFVISRTGHFYINGYRYFTLGNVEAVNFNVTTAETTDFCTVALASYADVLVNVSQTSIANIIYCNSVINRLRCDQLSFDVPDGFYSTSPIQSVELPVSIVSLPVYHKHTFIVLYVDFKPQSGGGKCFNCYPAGVNITLANFNETKGPLCVDTSHFTTKYVAVYANVGRWSASINTGNCPFSFGKVNNFVKFGSVCFSLKDIPGGCAMPIVANWAYSKYYTIGSLYVSWSDGDGITGVPQPVEGVSSFMNVTLDKCTKYNIYDVSGVGVIRVSNDTFLNGITYTSTSGNLLGFKDVTKGTIYSITPCNPPDQLVVYQQAVVGAMLSENFTSYGFSNVVELPKFFYASNGTYNCTDAVLTYSSFGVCADGSIIAVQPRNVSYDSVSAIVTANLSIPSNWTTSVQVEYLQITSTPIVVDCSTYVCNGNVRCVELLKQYTSACKTIEDALRNSARLESADVSEMLTFDKKAFTLANVSSFGDYNLSSVIPSLPTSGSRVAGRSAIEDILFSKLVTSGLGTVDADYKKCTKGLSIADLACAQYYNGIMVLPGVADAERMAMYTGSLIGGIALGGLTSAVSIPFSLAIQARLNYVALQTDVLQENQKILAASFNKAMTNIVDAFTGVNDAITQTSQALQTVATALNKIQDVVNQQGNSLNHLTSQLRQNFQAISSSIQAIYDRLDTIQADQQVDRLITGRLAALNVFVSHTLTKYTEVRASRQLAQQKVNECVKSQSKRYGFCGNGTHIFSIVNAAPEGLVFLHTVLLPTQYKDVEAWSGLCVDGTNGYVLRQPNLALYKEGNYYRITSRIMFEPRIPTMADFVQIENCNVTFVNISRSELQTIVPEYIDVNKTLQELSYKLPNYTVPDLVVEQYNQTILNLTSEISTLENKSAELNYTVQKLQTLIDNINSTLVDLKWLNRVETYIKWP",Kd,1360 nM
